Details in all cases: protein: recombinant; tags: MBP; label: 32P 5' end
The target of data set [1] is T1, MBP-KLF4 full length (human, UniProt O43474-1 1-479). The data set is described as follows: EMSA; EMSA: 10 mM Tris-HCl pH 7.5, 53 mM NaCl, 1 mM DTT, 0.01% NP40, 5% glycerol, protein inhibitors, RT 30 min; footprinting: 110 ng to 3 ug protein, RT 30 min, 0.3. (In general: Mobility shift assays separate free from complexed probe on a gel.)
For data set [2], the target named is T2, MBP-KLF4 DBD (human, UniProt O43474-1 375-479). Described as above.
T2 sequence (O43474 409-513): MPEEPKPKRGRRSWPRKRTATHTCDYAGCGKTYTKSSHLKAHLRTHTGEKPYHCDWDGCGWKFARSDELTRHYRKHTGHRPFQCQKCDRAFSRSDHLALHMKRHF
Data set [3] deals with T3, MBP-KLF4 K409Q full length (human, UniProt O43474-1 1-479, K409Q). The data set is described as above.
T3 sequence (O43474 other isoform, or with tags, fused parts or gaps K409Q | K409Q K409Q): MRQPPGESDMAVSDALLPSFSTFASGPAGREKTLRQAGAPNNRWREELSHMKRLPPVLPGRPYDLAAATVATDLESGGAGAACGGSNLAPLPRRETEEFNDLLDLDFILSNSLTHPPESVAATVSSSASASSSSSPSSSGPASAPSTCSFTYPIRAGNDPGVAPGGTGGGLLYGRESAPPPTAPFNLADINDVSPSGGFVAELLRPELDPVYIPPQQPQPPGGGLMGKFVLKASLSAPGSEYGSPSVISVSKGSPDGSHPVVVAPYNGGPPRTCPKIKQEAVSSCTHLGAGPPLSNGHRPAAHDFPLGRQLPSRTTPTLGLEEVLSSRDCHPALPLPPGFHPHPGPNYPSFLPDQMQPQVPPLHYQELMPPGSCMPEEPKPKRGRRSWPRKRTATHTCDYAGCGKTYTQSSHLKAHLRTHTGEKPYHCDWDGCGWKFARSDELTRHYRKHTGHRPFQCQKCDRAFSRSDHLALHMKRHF
The target of data set [4] is T1, MBP-KLF4 full length. Nature of the data set: EMSA; same strong binding as TRH-122; EMSA: 10 mM Tris-HCl pH 7.5, 53 mM NaCl, 1 mM DTT, 0.01% NP40, 5% glycerol, protein inhibitors, RT 30 min; footprinting: 110 ng to 3 ug protein, RT 30 min, 0.3.
Data set [5] deals with T2, MBP-KLF4 DBD. The data set is described as above.
In the next data set the target is MBP-KLF4 K409Q DBD (human, UniProt O43474-1 375-479, K409Q). Nature of the data set: EMSA; stronger than FGF3-201; EMSA: 10 mM Tris-HCl pH 7.5, 53 mM NaCl, 1 mM DTT, 0.01% NP40, 5% glycerol, protein inhibitors, RT 30 min; footprinting: 110 ng to 3 ug protein, RT 30 min, 0.3.
Chain of MBP-KLF4 K409Q DBD (O43474 409-513 K443Q): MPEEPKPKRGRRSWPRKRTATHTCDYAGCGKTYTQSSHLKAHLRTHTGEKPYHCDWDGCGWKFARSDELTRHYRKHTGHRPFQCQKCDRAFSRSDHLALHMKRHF
Data set [6] addresses T3, MBP-KLF4 K409Q full length. The data set is described as above.

T1 sequence (O43474 other isoform, or with tags, fused parts or gaps): as the sequence (O43474 other isoform, or with tags, fused parts or gaps K409Q | K409Q K409Q) above, with Q409K counted along it

B1: TRH-122 (dsDNA)
DNA 1: GAGCAGGCGGGCGGGGTCCCGC
DNA 2: GCGGGACCCCGCCCGCCTGCTC
Regarding B1, the binding result (in the data set with MBP-KLF4 full length [1]; in the data set with MBP-KLF4 DBD [2]; in data set [3]) was “binds” throughout.

B2: TRH-122M (dsDNA)
DNA 1: GAGCAGGCGGGCGGGGCCCCGC
DNA 2: GCGGGGCCCCGCCCGCCTGCTC
With B2, the binding result with MBP-KLF4 full length [4] and in the data set with MBP-KLF4 DBD [5] was “binds” throughout.

B3: FGF3-201M (dsDNA)
DNA 1: CCTTTAATGGGTGTGTGTCAGC
DNA 2: GCTGACACACACCCATTAAAGG
On to B3, for which the binding result (in the data set with MBP-KLF4 K409Q DBD; in data set [6]) was “binds” in each case.

(Values after paper PMC9391581, “Mutated KLF4(K409Q) in meningioma binds STRs and activates FGF3 gene expression”.)
